Experimental data taken from the supplement of paper PMC9732359.
± gives the uncertainty stated by the source.

Test: protein stability index of a GFP-peptide fusion (yeast GPS) (PSI 1-4); higher = more stable; sorted into four equal gates, so the index is relative within each strain
Method in brief: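 Tiled 17-residue yeast protein peptides were fused downstream of GFP in a plasmid that also expresses Cherry, and the pooled library was carried in yeast. Mid-log cultures in leucine-free medium were sorted into four equal gates by GFP/Cherry fluorescence ratio, and plasmids from each gate were PCR-amplified and Illumina-sequenced, with reads assigned to strains by barcodes. The protein stability index for each peptide was each gate's read frequency times its gate number, summed.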

Row | Sequence | protein stability index (doa10∆) | protein stability index (pdr5∆) | protein stability index (san1∆) | protein stability index (ubr1∆)
1 | EKDAKINKLMEKDFQVN [SIR4] | 3.22 ± 0.067 | 3.44 ± 0.07 | 3.3 ± 0.07 | 3.47 ± 0.055
2 | TTIKAIFDGNYGESDIH [YMR129W/POM152] | 3.23 ± 0.09 | 2.97 ± 0.14 | 3.58 ± 0.2 | 2.89 ± 0.12
3 | DKETQLKKRAVSGVELR [POP7] | 2.7 ± 0.21 | 2.57 ± 0.26 | 2.36 ± 0.18 | 2.27 ± 0.25
4 | RFDAQTGSDREVQRILI [RPT3] | 3.09 ± 0.12 | 3.08 ± 0.14 | 3.43 ± 0.1 | 3.4 ± 0.16
5 | QLYEDLCRYEDTLSKLV [MED4] | 2.62 ± 0.097 | 2.67 ± 0.16 | 2.75 ± 0.27 | 3.25 ± 0.09
6 | RSATGAKRAQFRKKRKF [RPS8A] | 2.94 ± 0.1 | 2.5 ± 0.085 | 3.42 ± 0.096 | 2.68 ± 0.073
7 | IDMIADENGTNSAIANE [RPC37] | – | – | – | 3.17 ± 0.11
8 | IPDHLAELIPELYSFQQ [SNF12] | 3.02 ± 0.077 | 2.94 ± 0.07 | 2.95 ± 0.05 | 2.93 ± 0.059
9 | LEGSVSLPRFSKPVLIV [DIS3] | 2.67 ± 0.072 | 2.57 ± 0.063 | 2.19 ± 0.06 | 3.02 ± 0.062
10 | LRDDTLPKAWISLAVEG [COR1] | 2.55 ± 0.059 | 1.9 ± 0.08 | 1.78 ± 0.12 | 1.44 ± 0.037
11 | ATFSVSQASSDLGETFR [CSL4] | 3.04 ± 0.086 | 2.64 ± 0.064 | 3.23 ± 0.065 | 2.57 ± 0.041
12 | IAFDDLIENKIQNKKIQ [RPN8] | 2.54 ± 0.07 | 2.25 ± 0.081 | 2.57 ± 0.066 | 2.71 ± 0.05
13 | DLYEQIGIDPPRGVLLY [RPT3] | 2.6 ± 0.073 | 3.02 ± 0.1 | 2.8 ± 0.055 | 2.9 ± 0.08
14 | SKKVTSGVPRLKEILNV [RPO21] | 1.81 ± 0.1 | 2.06 ± 0.12 | 1.55 ± 0.23 | 1.1 ± 0.083
15 | PPKPRKVLQLLRLTRIN [RPL7A] | 1.95 ± 0.095 | 1.57 ± 0.077 | 1.7 ± 0.12 | 1.09 ± 0.061
16 | NTMSAWVNMLLISSSGP [FAS2] | 1.99 ± 0.07 | 1.32 ± 0.051 | 1.37 ± 0.1 | 1.52 ± 0.043
17 | VVEISNGNTSSKTVVTL [FAS1] | 3.11 ± 0.06 | 3.18 ± 0.05 | 3.28 ± 0.072 | 3.26 ± 0.06
18 | YKAKIKELENNLERLRS [YIL149C/MLP2] | 3.22 ± 0.095 | 1.65 ± 0.051 | 2.64 ± 0.078 | 3.11 ± 0.054
19 | MKKKLELISYRNESLKN [SRB8] | 2.96 ± 0.045 | 2.98 ± 0.058 | 2.94 ± 0.05 | 3.07 ± 0.035
20 | EALLVVLVSSVTEANII [RPS12] | – | 1.15 ± 0.14 | – | 1.13 ± 0.11
21 | TPLLENISISTSELGND [BRR2] | 2.16 ± 0.058 | 2.05 ± 0.049 | 2.2 ± 0.07 | 2.03 ± 0.042
22 | TPANNGENAAEKPDNSN [SNF2] | 1.89 ± 0.075 | 2.24 ± 0.098 | 1.81 ± 0.1 | 2.71 ± 0.068
23 | PAAESKIFTPNLLQISA [SNF5] | 1.72 ± 0.12 | 2.04 ± 0.11 | 2.09 ± 0.14 | 1.55 ± 0.099
24 | EGYQNDINTIKLQLSFV [SRP72] | 3.12 ± 0.21 | 2.73 ± 0.088 | 2.1 ± 0.26 | 3.07 ± 0.14
25 | FQKAQGSYAGHRKHIAV [YCG1] | – | 2.11 ± 0.28 | 2.29 ± 0.22 | 2.46 ± 0.095
26 | TVQLTFLIDVLKIYAQI [YCG1] | 1.58 ± 0.047 | 1.99 ± 0.05 | 1.74 ± 0.059 | 1.7 ± 0.042
27 | VIAKLNHNQFECKGCDN [RPB2] | 2.93 ± 0.054 | 3.14 ± 0.067 | 3 ± 0.05 | 3.01 ± 0.097

Row | Sequence | protein stability index (doa10∆) | protein stability index (pdr5∆) | protein stability index (san1∆) | protein stability index (ubr1∆)
28 | EVCAKMPNIELYLKVIP [SSN2] | 2.71 ± 0.047 | 2.51 ± 0.045 | 2.48 ± 0.052 | 2.26 ± 0.039
29 | LADWRIRPLSKPMTAYA [RRP6] | 2.82 ± 0.13 | 3.15 ± 0.13 | 2.7 ± 0.19 | 2.98 ± 0.088
30 | KLKNENTDLKDIIQGNP [PCI8] | 2.82 ± 0.051 | 3.21 ± 0.084 | 2.75 ± 0.14 | 3.25 ± 0.089
31 | EDGTFSVLYPDELEDDT [RRP43] | 3.23 ± 0.086 | 3.1 ± 0.077 | 3.16 ± 0.061 | 3.11 ± 0.063
32 | IREINYTMSNHGMSVDP [RPO31] | 2.87 ± 0.16 | 3.03 ± 0.2 | 3.03 ± 0.11 | 3.06 ± 0.13
33 | TQDDFTTSVDVMLKGIV [SRP54] | 1.63 ± 0.1 | 2.23 ± 0.081 | 1.67 ± 0.12 | 1.51 ± 0.047
34 | ALRRRVGPSEQNFAEED [REC8] | 3.37 ± 0.12 | 3.51 ± 0.15 | 3.39 ± 0.11 | 3.24 ± 0.098
35 | GVITVHNVFSKEQTIQL [RPN14] | 2.57 ± 0.14 | 2.63 ± 0.19 | 2.95 ± 0.079 | 3.12 ± 0.14
36 | DVAYLLKSESATSQYLK [YGL172W/NUP49] | 2.25 ± 0.14 | 3.21 ± 0.094 | 2.94 ± 0.1 | 3.03 ± 0.11
37 | TNVNVKIKDVQQQIESN [SMC3] | 3.19 ± 0.088 | 3.17 ± 0.081 | 3.18 ± 0.074 | 2.79 ± 0.1
38 | QYIRTLVSEARTLWPEF [SSN8] | 2.61 ± 0.052 | 2.67 ± 0.052 | 2.39 ± 0.06 | 2.42 ± 0.046
39 | VSMKANKYQIKKAVKEL [RPL25] | 1.18 ± 0.065 | 1.52 ± 0.07 | 2.98 ± 0.056 | 2.97 ± 0.071
40 | AEEALEPSYIFEYLATV [PRE4] | 2.66 ± 0.059 | 2.44 ± 0.067 | 2.54 ± 0.061 | 2.73 ± 0.045
41 | KQANNFLWPFKLSNPSG [RPL7A] | 2.69 ± 0.13 | 3.02 ± 0.12 | 3.09 ± 0.1 | 2.74 ± 0.11
42 | KVISEILTKEVQGSTLA [RPS1A] | 2.29 ± 0.026 | 2.336 ± 0.023 | 2.29 ± 0.03 | 2.194 ± 0.018
43 | GYGSNKKTKFLSPSGHK [RPL32] | 2.4 ± 0.081 | 2.64 ± 0.09 | 2.62 ± 0.14 | 1.63 ± 0.092
44 | KLNTFNLQTFTHEQWSN [SRP72] | 3 ± 0.12 | 2.83 ± 0.078 | 2.36 ± 0.076 | 2.78 ± 0.062
45 | LLNVSVNITKFSKFERS [SKI6] | 2.32 ± 0.075 | 2.49 ± 0.049 | 2.7 ± 0.06 | 2.44 ± 0.039
46 | MNMFGGGMGGGMGGGMP [SRP54] | 1.38 ± 0.055 | 2.43 ± 0.21 | 1.69 ± 0.17 | 1.53 ± 0.18
47 | NANTIETAKMIENMTKE [FAS2] | 2.72 ± 0.073 | 3.35 ± 0.078 | 2.97 ± 0.065 | 3.35 ± 0.095
48 | VEIIDQKKVLIDGPKAG [RPL14A] | 2.8 ± 0.18 | 2.65 ± 0.09 | 2.91 ± 0.076 | 2.72 ± 0.065
49 | LLLKKIIKDYVLDIVPG [SRB4] | 2.74 ± 0.094 | 2.52 ± 0.084 | 2.33 ± 0.1 | 2.71 ± 0.073
50 | RFSPDEDFEHNNLSSMN [MCD1] | 2.69 ± 0.094 | 3.35 ± 0.18 | 3.09 ± 0.091 | 3.18 ± 0.074
51 | TSDLLGSHLSETEFPPF [ECM29] | 2.94 ± 0.049 | 3.17 ± 0.062 | 3.17 ± 0.042 | 2.9 ± 0.058
52 | DKARRLGYKAKQGFVIY [RPL15A] | 3.24 ± 0.16 | 3.33 ± 0.23 | 2.91 ± 0.14 | 3.28 ± 0.25
53 | IKLDRWLMEGSYQKAWD [RPN12] | 2.72 ± 0.11 | 2.8 ± 0.098 | 2.9 ± 0.11 | 2.68 ± 0.11
